The source of these data is patent US20090228996A1, “Means and Methods for influencing Interactions Between Dc-Sign and Dc-Sign Ligands” (priority 2006, published 2009).

For data set [1], the target named is T1, DC-SIGN (Homo sapiens, UniProt Q9NNX6).
T1 sequence (Q9NNX6 1-404): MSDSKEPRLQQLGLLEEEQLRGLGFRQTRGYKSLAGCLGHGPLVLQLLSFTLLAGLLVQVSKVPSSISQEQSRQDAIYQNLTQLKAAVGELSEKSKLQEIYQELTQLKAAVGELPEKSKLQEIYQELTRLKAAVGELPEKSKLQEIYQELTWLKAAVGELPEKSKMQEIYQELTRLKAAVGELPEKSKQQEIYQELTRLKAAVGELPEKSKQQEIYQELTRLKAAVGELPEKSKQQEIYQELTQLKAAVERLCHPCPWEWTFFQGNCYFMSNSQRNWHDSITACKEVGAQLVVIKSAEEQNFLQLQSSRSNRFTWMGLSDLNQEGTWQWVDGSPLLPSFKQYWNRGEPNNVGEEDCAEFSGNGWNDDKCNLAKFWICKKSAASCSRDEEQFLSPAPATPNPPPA
The conditions noted are these: literature; cited from earlier work.

The test system of data set [2] is DC-SIGN mediated transfer of HIV-1 by Raji-DC-SIGN cells to CD4+ T-lymphocytes. The data set is described as follows: DC-SIGN mediated HIV-1 transfer assay (Raji-DC-SIGN transfer culture assay). The conditions noted are these: BSSL isolated from S4, at 30 μg/ml and 1.2 μg/ml; P<0.05. It counts as cell-based. How it is done: DC-SIGN mediated HIV-1 transfer assay. The Raji and Raji-DC-SIGN cells were plated at a concentration of 2×10^4 cells/well in a 96 well format. Dilutions of human milk or human milk compounds were made in PBS containing 10% FCS and spiked with 3.7log TCID50/ml of the appropriate virus before addition to the Raji-DC-SIGN cells. As controls PBS containing 10% FCS was spiked with the same TCID50/ml of the corresponding virus before addition to Raji or Raji-DC-SIGN cells. After incubation the culture was washed with PBS before addition of CD4^+ enriched T-lymphocytes at a concentration of 1×10^5 cells/well with p24 determined on day 7. DC-SIGN specific antibody binding after exposure to human milk. […] The cells were washed and resuspended in 100 μl TSM containing 0.5% bovine serum albumin, (BSA Fraction V, Fatty Acid-Free) (Calbiochem) and the adhesion was measured by flow cytometry (BD Biosciences).
DC-SIGN mediated HIV-1 transfer assay. […] After a two hour incubation the culture was washed with PBS before addition of CD4^+ enriched T-lymphocytes at a concentration of 1×10^5 cells/well with p24 values determined on day 7.

Data set [3] deals with T2, DC-SIGN-Fc (Homo sapiens, UniProt Q9NNX6).
T2 construct: the extracellular portion of DC-SIGN (amino acids 64 to 404)
T2 sequence (Q9NNX6 64-404): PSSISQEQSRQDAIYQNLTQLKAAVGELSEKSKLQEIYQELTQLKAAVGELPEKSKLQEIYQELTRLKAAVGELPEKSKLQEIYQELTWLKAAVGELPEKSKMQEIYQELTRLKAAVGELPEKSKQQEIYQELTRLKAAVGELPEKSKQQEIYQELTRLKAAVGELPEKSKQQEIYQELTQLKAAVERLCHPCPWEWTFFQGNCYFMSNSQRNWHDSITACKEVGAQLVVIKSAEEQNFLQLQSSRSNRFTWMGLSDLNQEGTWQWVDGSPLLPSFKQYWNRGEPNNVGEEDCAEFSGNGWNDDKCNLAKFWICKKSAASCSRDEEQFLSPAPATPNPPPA
The experiment in a line: DC-SIGN-Fc binding ELISA. How it is done:
DC-SIGN-Fc binding ELISA. The DC-SIGN-Fc chimera contained the extracellular portion of DC-SIGN (amino acids 64 to 404) fused at the C-terminus to a human immunoglobulin (Ig) G1 Fc fragment and has been previously described (Geijtenbeek et al, 2002). Human milk or human milk compounds were diluted in 0.2M NaHCO3, coated on ELISA plates (maxisorb plate; Nunc) and incubated overnight at 4° C. or 2 hours at 37° C. This was followed by blocking with TSM containing 1% BSA for 30 minutes at 37° C. before addition of soluble DC-SIGN-Fc (5 μg/ml) for 2 hours at RT, the binding was determined by incubation of a peroxidase labeled anti-IgG1 antibody for 30 minutes at RT. DC-SIGN-Fc binding specificity was determined by pre-incubation of the DC-SIGN-FC with either 50 μg/ml DC-SIGN specific mouse antibody AZN-D1 (Geijtenbeek et al, 2000 a) or 10 mM EGTA. Single-cycle-replication transmission assay. The assay was performed as previously described (Groot et al, 2005). In short mDCs and iDCs were incubated in a 96-well-plate (35−50×10^3 DC/well) with human milk for 30 minutes at 37° C. before addition of the virus (5 ng p24/well), which was incubated for 2 hours at 37° C. The DCs were washed twice with PBS before addition of 50×10^3 LuSIV cells. After 24 hours, LuSIV cells were harvested and resuspended in 50 μl lysis buffer (25 mM Tris-Cl 7.8, 2 mM DTT, 2 mM CDTA, 10% glycerol, 1% Triton X100). The cells were then incubated for 45 minutes at room temperature while shaking, followed by 10 minutes centrifugation at 3200×g. The supernatant was transferred to a white-solid 96 well plate (Corning Costar), and 150 μl of lucibuffer (100 μg/ml BSA, 6.6 mM ATP, 15 mM MgSO4, 25 mM glycylglycine) was added. 100 μl of DE(−)Luciferin (Roche Diagnostics GmbH) was injected per well (0.28 mg/ml lucibuffer excluding ATP). 50×10^3 LuSIV cells grown without DC or HIV-1 were used to obtain the background luciferase value.
DC-SIGN-Fc binding ELISA. The DC-SIGN-Fc chimera contained the extracellular portion of DC-SIGN (amino acids 64 to 404) fused at the C-terminus to a human immunoglobulin (Ig) G1 Fc fragment which has been previously described (Geijtenbeek et al, 2002). Human milk or BSSL were diluted in 0.2 M NaHCO3, coated on ELISA plates (maxisorb plate; Nunc) and incubated overnight at 4° C. or 2 hours at 37° C. This was followed by blocking with TSM containing 1% BSA for 30 minutes at 37° C. before addition of soluble DC-SIGN-Fc (5 μg/ml) for 2 hours at RT, the binding was determined by incubation of a peroxidase labeled anti-IgG1 antibody for 30 minutes at RT. DC-SIGN-Fc binding specificity was determined by pre-incubation of the DC-SIGN-Fc with either 50 μg/ml DC-SIGN specific mouse antibody AZN-D1 (Geijtenbeek et al, 2000 a) or 10 mM EGTA.

B1: bovine lactoferrin: control protein previously shown to bind DC-SIGN (protein, UniProt P24627 20-708, looked up)
Lactotransferrin: APRKNVRWCTISQPEWFKCRRWQWRMKKLGAPSITCVRRAFALECIRAIAEKKADAVTLDGGMVFEAGRDPYKLRPVAAEIYGTKESPQTHYYAVAVVKKGSNFQLDQLQGRKSCHTGLGRSAGWIIPMGILRPYLSWTESLEPLQGAVAKFFSASCVPCIDRQAYPNLCQLCKGEGENQCACSSREPYFGYSGAFKCLQDGAGDVAFVKETTVFENLPEKADRDQYELLCLNNSRAPVDAFKECHLAQVPSHAVVARSVDGKEDLIWKLLSKAQEKFGKNKSRSFQLFGSPPGQRDLLFKDSALGFLRIPSKVDSALYLGSRYLTTLKNLRETAEEVKARYTRVVWCAVGPEEQKKCQQWSQQSGQNVTCATASTTDDCIVLVLKGEADALNLDGGYIYTAGKCGLVPVLAENRKSSKHSSLDCVLRPTEGYLAVAVVKKANEGLTWNSLKDKKSCHTAVDRTAGWNIPMGLIVNQTGSCAFDEFFSQSCAPGADPKSRLCALCAGDDQGLDKCVPNSKEKYYGYTGAFRCLAEDVGDVAFVKNDTVWENTNGESTADWAKNLNREDFRLLCLDGTRKPVTEAQSCHLAVAPNHAVVSRSDRAAHVKQVLLHQQALFGKNGKNCPDKFCLFKSETKNLLFNDNTECLAKLGGRPTYEEYLGTEYVTAIANLKKCSTSPLLEACAFLTR
Consider B1, for which, in data set [1], the “previously shown DC-SIGN binding” value is “bind DC-SIGN and prevent viral transfer”.

B2: BSSL: Bile salt stimulated lipase glycoprotein isolated from human milk (S4) (protein, UniProt P19835 21-753, looked up)
Bile salt-activated lipase: AKLGAVYTEGGFVEGVNKKLGLLGDSVDIFKGIPFAAPTKALENPQPHPGWQGTLKAKNFKKRCLQATITQDSTYGDEDCLYLNIWVPQGRKQVSRDLPVMIWIYGGAFLMGSGHGANFLNNYLYDGEEIATRGNVIVVTFNYRVGPLGFLSTGDANLPGNYGLRDQHMAIAWVKRNIAAFGGDPNNITLFGESAGGASVSLQTLSPYNKGLIRRAISQSGVALSPWVIQKNPLFWAKKVAEKVGCPVGDAARMAQCLKVTDPRALTLAYKVPLAGLEYPMLHYVGFVPVIDGDFIPADPINLYANAADIDYIAGTNNMDGHIFASIDMPAINKGNKKVTEEDFYKLVSEFTITKGLRGAKTTFDVYTESWAQDPSQENKKKTVVDFETDVLFLVPTEIALAQHRANAKSAKTYAYLFSHPSRMPVYPKWVGADHADDIQYVFGKPFATPTGYRPQDRTVSKAMIAYWTNFAKTGDPNMGDSAVPTHWEPYTTENSGYLEITKKMGSSSMKRSLRTNFLRYWTLTYLALPTVTDQEATPVPPTGDSEATPVPPTGDSETAPVPPTGDSGAPPVPPTGDSGAPPVPPTGDSGAPPVPPTGDSGAPPVPPTGDSGAPPVPPTGDSGAPPVPPTGDSGAPPVPPTGDSGAPPVPPTGDAGPPPVPPTGDSGAPPVPPTGDSGAPPVTPTGDSETAPVPPTGDSGAPPVPPTGDSEAAPVPPTDDSKEAQMPAVIRF
On to B2, for which the “inhibition of DC-SIGN mediated HIV-1 transfer” value in data set [2] is given as “significant inhibition”. Further, the DC-SIGN-Fc binding result in data set [3] (BSSL at 30 μg/ml, 3 μg/ml and 0.3 μg/ml, P<0.01) is recorded as “binding”. For the same molecule, the “effect of trypsinization of purified BSSL” value in data set [3] (binding not fully alleviated, data not shown) was “trypsin sensitive”. Moreover, the “effect of heat treatment of purified BSSL” value in data set [3] (data not shown) was “heat resistant”.
